Measured values published in article PMC6515407, “Laccases with Variable Properties from Different Strains of Steccherinum ochraceum: Does Glycosylation Matter?” (International Journal of Molecular Sciences, 2019).

Legend:
Conditions in all cases: 0.1 M McIlvaine buffer pH 4.5, 25 °C, native glycosylated enzyme
[1] = substrate: COc1cc(C=NN=Cc2cc(OC)c(O)c(OC)c2)cc(OC)c1O; test: spectrophotometric oxidation kinetics; assay type: biochemical, Steccherinum ochraceum
Source text: (§1) spectrophotometric oxidation kinetics on So3827

[2] = substrate: CCn1c(=NN=c2sc3cc(S(=O)(=O)O)ccc3n2CC)sc2cc(S(=O)(=O)O)ccc21; test: spectrophotometric oxidation kinetics; assay type: biochemical, Steccherinum ochraceum
Source text: as §1

[3] = substrate: COc1cc(C=NN=Cc2cc(OC)c(O)c(OC)c2)cc(OC)c1O; test: spectrophotometric oxidation kinetics; assay type: biochemical, Steccherinum ochraceum; remark: listed apart in the source
Source text: (§2) spectrophotometric oxidation kinetics on So3174

[4] = substrate: Oc1ccccc1O; test: spectrophotometric oxidation kinetics; assay type: biochemical, Steccherinum ochraceum
Source text: as §2

[5] = substrate: CCn1c(=NN=c2sc3cc(S(=O)(=O)O)ccc3n2CC)sc2cc(S(=O)(=O)O)ccc21; test: spectrophotometric oxidation kinetics; assay type: biochemical, Steccherinum ochraceum; remark: listed apart in the source
Source text: as §2

[6] = substrate: COc1cccc(OC)c1O; test: spectrophotometric oxidation kinetics; assay type: biochemical, Steccherinum ochraceum
Source text: as §2

purified protein = substrate: COc1ccccc1O; test: purified protein
[7] = substrate: COc1cc(C=NN=Cc2cc(OC)c(O)c(OC)c2)cc(OC)c1O; test: spectrophotometric oxidation kinetics; assay type: biochemical, Steccherinum ochraceum; remark: listed apart in the source
Source text: (§3) spectrophotometric oxidation kinetics on So3622

[8] = substrate: CCn1c(=NN=c2sc3cc(S(=O)(=O)O)ccc3n2CC)sc2cc(S(=O)(=O)O)ccc21; test: spectrophotometric oxidation kinetics; assay type: biochemical, Steccherinum ochraceum; remark: listed apart in the source
Source text: as §3

[9] = substrate: COc1cc(C=NN=Cc2cc(OC)c(O)c(OC)c2)cc(OC)c1O; test: spectrophotometric oxidation kinetics; assay type: biochemical, Steccherinum ochraceum; remark: listed apart in the source
Source text: (§4) spectrophotometric oxidation kinetics on So3617

[10] = substrate: CCn1c(=NN=c2sc3cc(S(=O)(=O)O)ccc3n2CC)sc2cc(S(=O)(=O)O)ccc21; test: spectrophotometric oxidation kinetics; assay type: biochemical, Steccherinum ochraceum; remark: listed apart in the source
Source text: as §4

[11] = substrate: COc1cc(C=NN=Cc2cc(OC)c(O)c(OC)c2)cc(OC)c1O; test: spectrophotometric oxidation kinetics; assay type: biochemical, Steccherinum ochraceum; remark: listed apart in the source
Source text: (§5) spectrophotometric oxidation kinetics on So3398

[12] = substrate: CCn1c(=NN=c2sc3cc(S(=O)(=O)O)ccc3n2CC)sc2cc(S(=O)(=O)O)ccc21; test: spectrophotometric oxidation kinetics; assay type: biochemical, Steccherinum ochraceum; remark: listed apart in the source
Source text: as §5

[13] = substrate: COc1cccc(OC)c1O; test: spectrophotometric oxidation kinetics; assay type: biochemical, Steccherinum ochraceum; remark: listed apart in the source
Source text: as §5

[14] = substrate: COc1cc(C=NN=Cc2cc(OC)c(O)c(OC)c2)cc(OC)c1O; test: spectrophotometric oxidation kinetics; assay type: biochemical, Steccherinum ochraceum; remark: listed apart in the source
Source text: (§6) spectrophotometric oxidation kinetics on So3120

[15] = substrate: CCn1c(=NN=c2sc3cc(S(=O)(=O)O)ccc3n2CC)sc2cc(S(=O)(=O)O)ccc21; test: spectrophotometric oxidation kinetics; assay type: biochemical, Steccherinum ochraceum; remark: listed apart in the source
Source text: as §6

[16] = substrate: COc1cccc(OC)c1O; test: spectrophotometric oxidation kinetics; assay type: biochemical, Steccherinum ochraceum; remark: listed apart in the source
Source text: as §6

B1: So3827 (Steccherinum ochraceum) (protein)
chain: VQIGPVTDLHITNANIAPDGFTRPAVLAGGTFPGPTISGNTGDNFQITVFNELTETSMLTDTSIHWHGLFQKGTNWADGPAFVTQCPIITGNSFDYNFNVPGQAGTYWYHSHLSTQYCDGLRGPFVVYDPNDPNASLYDVDDDTTIITLADWYHTLAQQEPIGAAITADATLINGLGRSFTNTTASPLSVITVQSGKRYRMRLVSISCDPNYQFSIDGHDMTIIEVDGVNSQQLTVDQIQIFAAQRYSFVLNANQPVGNYWIRAQPNSGGQGFDGGINSAILRYEGATVADPTTSPPTTFTSPLVETNLHPLADLGVPGQPFRGGADDPMVLNLGFANGRFTIDGVSFVPPTVPVLLQILSGAQNAQDLLPAGSVISLPPNSVIEVALPAGAAGGPHPFHLHGHNFAVVQSANNATPNYVNPIWRDTVSIGGTGDNVTIRFTTNNPGPWFLHCHIDWHLEAGFAIVFAEDIPDTASANPVPQAWSDLCPAYDQAHNISTAT
- Km [1]: 6.7 ± 0.9 µM
- kcat [1]: 113 ± 12 s⁻¹
- kcat/Km [1]: 1.69e+07 ± 2.87e+06 M⁻¹ s⁻¹
- Km [2]: 200 ± 7 µM
- kcat [2]: 276 ± 31 s⁻¹
- kcat/Km [2]: 1.38e+06 ± 162000 M⁻¹ s⁻¹

B2: So3174 (Steccherinum ochraceum) (protein)
chain: VQIGPVTDLHITNANIAPDGFTRPAVLAGGTFPGPTISGNTGDNFQITVFNELTETSMLTDTSIHWHGLFQKGTNWADGPAFVTQCPIITGNSFDYNFNVPGQAGTYWYHSHLSTQYCDGLRGPFVVYDPNDPNASLYDVDDDTTIITLADWYHTLAQQEPIGAAITADATLINGLGRSFTNTTASPLSVITVQSGKRYRMRLVSISCDPNYQFSIDGHDMTIIEVDGVNSQQLTVDQIQIFAAQRYSFVLNANQPVGNYWIRAQPNSGGQGFDGGINSAILRYEGATVADPTTSPPTTFTSPLVETNLHPLADLGVPGQPFRGGADDPMVLNLGFANGRFTIDGVSFVPPTVPVLLQILSGAQNAQDLLPAGSVISLPPNSVIEVALPAGAAGGPHPFHLHGHNFAVVQSANNATPNYVNPIWRDTVSIGGTGDNVTIRFTTNNPGPWFLHCHIDWHLEAGFAIVFAEDIPDTASANPVPQAWSDLCPAYDQAHNISTAT
- Km [3]: 3.8 ± 0.6 µM
- kcat [3]: 104 ± 11 s⁻¹
- kcat/Km [3]: 2.74e+07 ± 5.09e+06 M⁻¹ s⁻¹
- Km [4]: 576 ± 86 µM
- kcat [4]: 373 ± 27 s⁻¹
- kcat/Km [4]: 648000 ± 108000 M⁻¹ s⁻¹
- Km [5]: 81 ± 9 µM
- kcat [5]: 240 ± 21 s⁻¹
- kcat/Km [5]: 2.96e+06 ± 416000 M⁻¹ s⁻¹
- Km [6]: 20 ± 2 µM
- kcat [6]: 101 ± 9 s⁻¹
- kcat/Km [6]: 5.05e+06 ± 755000 M⁻¹ s⁻¹
- Km (purified protein): 2230 ± 205 µM
- kcat (purified protein): 152 s⁻¹
- kcat/Km (purified protein): 68000 M⁻¹ s⁻¹

B3: So3622 (Steccherinum ochraceum) (protein)
chain: VQIGPVTDLHITNANIAPDGFTRPAVLAGGTFPGPTISGNTGDNFQITVFNELTETSMLTDTSIHWHGLFQKGTNWADGPAFVTQCPIITGNSFDYNFNVPGQAGTYWYHSHLSTQYCDGLRGPFVVYDPNDPNASLYDVDDDTTIITLADWYHTLAQQEPIGAAITADATLINGLGRSFTNTTASPLSVITVQSGKRYRMRLVSISCDPNYQFSIDGHDMTIIEVDGVNSQQLTVDQIQIFAAQRYSFVLNANQPVGNYWIRAQPNSGGQGFDGGINSAILRYEGATVADPTTSPPTTFTSPLVETNLHPLADLGVPGQPFRGGADDPMVLNLGFANGRFTIDGVSFVPPTVPVLLQILSGAQNAQDLLPAGSVISLPPNSVIEVALPAGAAGGPHPFHLHGHNFAVVQSANNATPNYVNPIWRDTVSIGGTGDNVTIRFTTNNPGPWFLHCHIDWHLEAGFAIVFAEDIPDTASANPVPQAWSDLCPAYDQAHNISTAT
- Km [7]: 5.5 ± 0.7 µM
- kcat [7]: 83 ± 7 s⁻¹
- kcat/Km [7]: 1.51e+07 ± 2.21e+06 M⁻¹ s⁻¹
- Km [8]: 174 ± 11 µM
- kcat [8]: 252 ± 20 s⁻¹
- kcat/Km [8]: 1.45e+06 ± 147000 M⁻¹ s⁻¹

B4: So3617 (Steccherinum ochraceum) (protein)
chain: VQIGPVTDLHITNANIAPDGFTRPAVLAGGTFPGPTISGNTGDNFQITVFNELTETSMLTDTSIHWHGLFQKGTNWADGPAFVTQCPIITGNSFDYNFNVPGQAGTYWYHSHLSTQYCDGLRGPFVVYDPNDPNASLYDVDDDTTIITLADWYHTLAQQEPIGAAITADATLINGLGRSFTNTTASPLSVITVQSGKRYRMRLVSISCDPNYQFSIDGHDMTIIEVDGVNSQQLTVDQIQIFAAQRYSFVLNANQPVGNYWIRAQPNSGGQGFDGGINSAILRYEGATVADPTTSPPTTFTSPLVETNLHPLADLGVPGQPFRGGADDPMVLNLGFANGRFTIDGVSFVPPTVPVLLQILSGAQNAQDLLPAGSVISLPPNSVIEVALPAGAAGGPHPFHLHGHNFAVVQSANNATPNYVNPIWRDTVSIGGTGDNVTIRFTTNNPGPWFLHCHIDWHLEAGFAIVFAEDIPDTASANPVPQAWSDLCPAYDQAHNISTAT
- Km [9]: 5.2 ± 0.6 µM
- kcat [9]: 89 ± 10 s⁻¹
- kcat/Km [9]: 1.71e+07 ± 2.69e+06 M⁻¹ s⁻¹
- Km [10]: 212 ± 10 µM
- kcat [10]: 228 ± 21 s⁻¹
- kcat/Km [10]: 1.08e+06 ± 111000 M⁻¹ s⁻¹

B5: So3398 (Steccherinum ochraceum) (protein)
chain: VQIGPVTDLHITNANIAPDGFTRPAVLAGGTFPGPTISGNTGDNFQITVFNELTETSMLTDTSIHWHGLFQKGTNWADGPAFVTQCPIITGNSFDYNFNVPGQAGTYWYHSHLSTQYCDGLRGPFVVYDPNDPNASLYDVDDDTTIITLADWYHTLAQQEPIGAAITADATLINGLGRSFTNTTASPLSVITVQSGKRYRMRLVSISCDPNYQFSIDGHDMTIIEVDGVNSQQLTVDQIQIFAAQRYSFVLNANQPVGNYWIRAQPNSGGQGFDGGINSAILRYEGATVADPTTSPPTTFTSPLVETNLHPLADLGVPGQPFRGGADDPMVLNLGFANGRFTIDGVSFVPPTVPVLLQILSGAQNAQDLLPAGSVISLPPNSVIEVALPAGAAGGPHPFHLHGHNFAVVQSANNATPNYVNPIWRDTVSIGGTGDNVTIRFTTNNPGPWFLHCHIDWHLEAGFAIVFAEDIPDTASANPVPQAWSDLCPAYDQAHNISTAT
- Km [11]: 5.6 ± 0.8 µM
- kcat [11]: 119 ± 11 s⁻¹
- kcat/Km [11]: 2.12e+07 ± 3.56e+06 M⁻¹ s⁻¹
- Km [12]: 209 ± 27 µM
- kcat [12]: 281 ± 26 s⁻¹
- kcat/Km [12]: 1.34e+06 ± 214000 M⁻¹ s⁻¹
- Km [13]: 17 ± 3 µM
- kcat [13]: 152 ± 12 s⁻¹
- kcat/Km [13]: 8.94e+06 ± 1.52e+06 M⁻¹ s⁻¹

B6: So3120 (Steccherinum ochraceum) (protein)
chain: VQIGPVTDLHITNANIAPDGFTRPAVLAGGTFPGPTISGNTGDNFQITVFNELTETSMLTDTSIHWHGLFQKGTNWADGPAFVTQCPIITGNSFDYNFNVPGQAGTYWYHSHLSTQYCDGLRGPFVVYDPNDPNASLYDVDDDTTIITLADWYHTLAQQEPIGAAITADATLINGLGRSFTNTTASPLSVITVQSGKRYRMRLVSISCDPNYQFSIDGHDMTIIEVDGVNSQQLTVDQIQIFAAQRYSFVLNANQPVGNYWIRAQPNSGGQGFDGGINSAILRYEGATVADPTTSPPTTFTSPLVETNLHPLADLGVPGQPFRGGADDPMVLNLGFANGRFTIDGVSFVPPTVPVLLQILSGAQNAQDLLPAGSVISLPPNSVIEVALPAGAAGGPHPFHLHGHNFAVVQSANNATPNYVNPIWRDTVSIGGTGDNVTIRFTTNNPGPWFLHCHIDWHLEAGFAIVFAEDIPDTASANPVPQAWSDLCPAYDQAHNISTAT
- Km [14]: 5.4 ± 0.8 µM
- kcat [14]: 105 ± 12 s⁻¹
- kcat/Km [14]: 1.94e+07 ± 3.62e+06 M⁻¹ s⁻¹
- Km [15]: 175 ± 23 µM
- kcat [15]: 325 ± 28 s⁻¹
- kcat/Km [15]: 1.86e+06 ± 290000 M⁻¹ s⁻¹
- Km [16]: 17 ± 3 µM
- kcat [16]: 110 ± 14 s⁻¹
- kcat/Km [16]: 6.47e+06 ± 1.27e+06 M⁻¹ s⁻¹
